{"source": "patent US7611721B1", "about": "“Adjuvant combination formulations” (priority 2000, dated 2009)", "key": {"[1]": {"test_system": "Neisseria gonorrhoeae Porin B protein", "assay": "Reciprocal anti-Porin B protein serum IgG endpoint subclass titers", "assay_type": "in vivo, Swiss-Webster mice", "details": "Experiment 11; pooled serum n=5 Swiss-Webster; 1 μg Porin B s.c. week 0 and 4", "protocol": "Outbred Swiss-Webster mice were divided into five groups of ten mice each. Each group received 1 μg of recombinant Porin B protein (from strain FA1090 with 16 amino acids at the amino-terminus from a phage, followed by the mature form of the Porin B protein). […] Mice were immunized subcutaneously in the rump with a total volume of 0.2 ml, divided equally into each of two sites at the base of the tail/rump. Immunizations were administered at week 0 and week 4.\nMice were bled the day prior to each immunization, and at 13 days after the final immunization. Serum was analyzed from pools from mice within groups. […] All day 0 pre-immunization titers were less than 50.\nIndividual week 6 IgG titer geometric means against the recombinant Porin B protein were also determined.\n(§1) Outbred Swiss-Webster mice were divided into six groups of five mice each. Each group received 1 μg of recombinant Porin B protein (from strain FA1090 with 16 amino acids at the amino-terminus from a phage, followed by the mature form of the Porin B protein). […] Mice were immunized subcutaneously in the rump with a total volume of 0.2 ml. Immunizations were administered at week 0 and week 4.\n(§2) Mice were bled the day prior to each immunization, and at 13 days after the final immunization. Serum was analyzed from pools from mice within groups. […] All day 0 pre-immunization titers were less than 50. The starting dilution for vaginal lavage analysis was 1/5."}, "spleen cells [2]": {"test_system": "spleen cells", "assay_type": "cell-based, Balb/c mice", "protocol": "(§3) For proliferation assays and in vitro cytokine analysis, spleen cells were obtained from mice at the indicated time points. Single cell suspensions were prepared from pools of 3-5 mice as indicated in Results. For proliferation and cytokine analysis, cells were suspended in round bottom 96 well culture plates precoated overnight with HIV peptide antigens, control proteins, or RPMI-10 only. Spleen cells were added at 5×10^5 cells/well using culture medium having 2× supplements. Cell culture supernatants were harvested from triplicate wells for cytokine analysis three or six days after culture initiation. Immediately after supernatant harvest, cultures were pulsed with ^3H-thymidine for 18-24 hours, and harvested to quantify cell proliferation.\nGroups of five Balb/c female mice were immunized with 25 μg T1SP10MN(A) (−Cys) and the indicated adjuvants on days 0 and 28. Spleen cells were established in culture on day 56, and harvested for measurement of ^3H-thymidine incorporation 96 hours later. Mice were immunized with 50 ng IL-12, […], 50 μg MPL™ in an aqueous formulation, or as a stable emulsion with 2% SE. Data are presented as the delta cpm values as compared to proliferation values measured from cells grown in culture without stimulation.\nCells were cultured for a total of 96 hours. ^3H-thymidine was added to cultures for the last 18 hours. Data are presented as a proliferation index normalized to cells stimulated in culture with ConA ([mean cpm Antigen/mean cpm ConA]−[mean cpm medium/mean cpm ConA])×100. As a result, cells cultured in medium have a background proliferation of 0. Proliferation values less than cells grown in culture unstimulated are in parentheses."}, "RSV F protein": {"test_system": "RSV F protein", "sequence (P03420 137-574)": "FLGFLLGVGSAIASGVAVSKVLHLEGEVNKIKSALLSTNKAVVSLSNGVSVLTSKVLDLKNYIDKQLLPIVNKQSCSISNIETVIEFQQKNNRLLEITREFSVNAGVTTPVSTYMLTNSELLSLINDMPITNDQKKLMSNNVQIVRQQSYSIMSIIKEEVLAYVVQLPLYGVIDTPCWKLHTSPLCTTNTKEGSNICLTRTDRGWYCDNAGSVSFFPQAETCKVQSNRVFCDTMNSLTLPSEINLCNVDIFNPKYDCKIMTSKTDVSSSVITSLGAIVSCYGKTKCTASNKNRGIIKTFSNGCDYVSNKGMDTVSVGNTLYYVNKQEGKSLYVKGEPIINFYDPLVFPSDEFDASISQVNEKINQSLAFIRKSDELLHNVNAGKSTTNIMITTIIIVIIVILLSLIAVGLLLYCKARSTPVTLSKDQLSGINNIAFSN", "details": "Experiment 14; pooled serum n=5 Balb/c; 3 μg F protein s.c. week 0 and 4"}, "spleen cells [3]": {"test_system": "spleen cells", "assay": "Secretion of interferon-gamma by spleen cells (ELISA)", "assay_type": "cell-based, Balb/c mice", "details": "for Secretion of Interferon-gamma, Con A 1 μg/ml: Experiment 1", "protocol": "as §3\nFor cytokine analysis, cell culture supernatants were added to wells coated with BVD6-11B11 (for anti-IL4), or R4-6A2 (for interferon-gamma). After incubation and washing, wells were developed using biotin-labeled BVD6-24G2 (for IL4) or XMG 1.2 (for interferon-gamma). The concentration of cytokines was determined using a standard curve prepared from recombinant murine interferon-gamma or interleukin-4. All cytokine reagents were purchased from Pharmingen (San Diego, Calif.).\nInterferon-gamma secreted into culture by spleen cells stimulated with 25 μg T1SP10MN(A) (−Cys). Spleen cells were harvested from pools of five Balb/c female mice and cultured with the indicated antigenic stimuli (the same as in Example 6) for either three or six days. Interferon-gamma levels were determined by ELISA, and compared to a standard having a known concentration. Blank wells indicate that the assay could not detect Interferon-gamma from those culture conditions. The lower limit of detection sensitivity was 4 picograms/ml.\nCells were cultured for a total of 96 hours. Cell culture supernatants were analyzed for interferon-gamma by ELISA. All values were after subtraction from those determined from supernatants of cells stimulated with 10 μg of lysozyme. Results which were below the limit of detection, after subtraction from stimulation induced with lysozyme are indicated as “bd”. The adjuvants were the same as those in Example 12."}, "[4]": {"test_system": "Neisseria gonorrhoeae Porin B protein", "assay": "Vaginal wash anti-Porin B protein IgG and IgA titers", "assay_type": "in vivo, Swiss-Webster mice", "details": "Experiment 11; Swiss-Webster; starting dilution 1/5", "protocol": "as §1, §2"}, "[5]": {"details": "Experiment 1, immunized days 0 and 28, culture day 56, 96 hours"}, "[6]": {"details": "Experiment 2, 96 hours culture, values in parentheses are less than unstimulated cells"}, "[7]": {"details": "Experiment 2, 96 hours culture, after subtraction of lysozyme value, bd = below limit of detection"}}}
{"molecule": "rIL-12: Recombinantly expressed murine IL-12 (Genetics Institute) (protein, UniProt P43431 23-215; P43432 23-335, looked up) Interleukin-12 subunit alpha: RVIPVSGPARCLSQSRNLLKTTDDMVKTAREKLKHYSCTAEDIDHEDITRDQTSTLKTCLPLELHKNESCLATRETSSTTRGSCLPPQKTSLMMTLCLGSIYEDLKMYQTEFQAINAALQNHNHQQIILDKGMLVAIDELMQSLNHNGETLRQKPPVGEADPYRVKMKLCILLHAFSTRVVTINRVMGYLSSA Interleukin-12 subunit beta: MWELEKDVYVVEVDWTPDAPGETVNLTCDTPEEDDITWTSDQRHGVIGSGKTLTITVKEFLDAGQYTCHKGGETLSHSHLLLHKKENGIWSTEILKNFKNKTFLKCEAPNYSGRFTCSWLVQRNMDLKFNIKSSSSSPDSRAVTCGMASLSAEKVTLDQRDYEKYSVSCQEDVTCPTAEETLPIELALEARQQNKYENYSTSFFIRDIIKPDPPKNLQMKPLKNSQVEVSWEYPDSWSTPHSYFSLKFFVRIQRKKEKMKETEEGCNQKGAFLVEKTSTEVQCKGGNVCVQAQDRYYNSSCSKWACVPCRVRS", "values": [{"measurement": "Reciprocal anti-Porin B Protein IgG1 endpoint titer, Week 3", "setting": "[1]", "value": "2,578"}, {"measurement": "Reciprocal anti-Porin B Protein IgG1 endpoint titer, Week 6", "setting": "[1]", "value": "6,278"}, {"measurement": "Reciprocal anti-Porin B Protein IgG2a endpoint titer, Week 3", "setting": "[1]", "value": "2,071"}, {"measurement": "Reciprocal anti-Porin B Protein IgG2a endpoint titer, Week 6", "setting": "[1]", "value": "58,552"}, {"measurement": "Reciprocal anti-Porin B Protein IgG endpoint titer, Week 3", "setting": "[1]", "value": "7,266"}, {"measurement": "Reciprocal anti-Porin B Protein IgG endpoint titer, Week 6", "setting": "[1]", "value": "571,325"}, {"measurement": "Spleen cell proliferation, Con A 1 μg/ml", "setting": "spleen cells [2]; [5]", "value": "42,612 delta cpm"}, {"measurement": "Spleen cell proliferation, HIV Peptide 1.1 μg/ml", "setting": "spleen cells [2]; [5]", "value": 308, "unit": "delta cpm"}, {"measurement": "Spleen cell proliferation, HIV Peptide 3.3 μg/ml", "setting": "spleen cells [2]; [5]", "value": 692, "unit": "delta cpm"}, {"measurement": "Spleen cell proliferation, HIV Peptide 10 μg/ml", "setting": "spleen cells [2]; [5]", "value": 809, "unit": "delta cpm"}, {"measurement": "Spleen cell proliferation index normalized to ConA, Con A 5 μg/ml", "setting": "spleen cells [2]; Experiment 2, 96 hours culture", "value": 99.1}, {"measurement": "Spleen cell proliferation index normalized to ConA, HIV Peptide 1.1 μg/ml", "setting": "spleen cells [2]; [6]", "value": 0.5}, {"measurement": "Spleen cell proliferation index normalized to ConA, HIV Peptide 3.3 μg/ml", "setting": "spleen cells [2]; [6]", "value": 0.2}, {"measurement": "Spleen cell proliferation index normalized to ConA, HIV Peptide 10 μg/ml", "setting": "spleen cells [2]; [6]", "value": 0.2}, {"measurement": "Spleen cell proliferation index normalized to ConA, Lysozyme 10 μg/ml", "setting": "spleen cells [2]; [6]", "value": 0.2}, {"measurement": "Reciprocal anti-RSV F Protein IgG1 endpoint titer, Week 3", "setting": "RSV F protein", "value": "3,442"}, {"measurement": "Reciprocal anti-RSV F Protein IgG1 endpoint titer, Week 6", "setting": "RSV F protein", "value": "1,345,099"}, {"measurement": "Reciprocal anti-RSV F Protein IgG2a endpoint titer, Week 3", "setting": "RSV F protein", "value": 500}, {"measurement": "Reciprocal anti-RSV F Protein IgG2a endpoint titer, Week 6", "setting": "RSV F protein", "value": "65,951"}, {"measurement": "Reciprocal anti-RSV F Protein IgG endpoint titer, Week 3", "setting": "RSV F protein", "value": "13,557"}, {"measurement": "Reciprocal anti-RSV F Protein IgG endpoint titer, Week 6", "setting": "RSV F protein", "value": "4,459,059"}, {"measurement": "Secretion of Interferon-gamma, Con A 1 μg/ml", "setting": "spleen cells [3]; Six Day Cultures", "value": 8.4, "unit": "picograms/ml"}, {"measurement": "Secretion of Interferon-gamma, Con A 1 μg/ml", "setting": "spleen cells [3]; Three Day Cultures, detection limit 4 picograms/ml", "value": 5.9, "unit": "picograms/ml"}, {"measurement": "Secretion of Interferon-gamma, Con A 5 μg/ml", "setting": "spleen cells [3]; Experiment 2, 96 hours culture, after subtraction of lysozyme value", "value": 179, "unit": "units/ml"}, {"measurement": "Secretion of Interferon-gamma, HIV Peptide 1.1 μg/ml", "setting": "spleen cells [3]; [7]", "value": 41, "unit": "units/ml"}, {"measurement": "Secretion of Interferon-gamma, HIV Peptide 3.3 μg/ml", "setting": "spleen cells [3]; [7]", "value": 2, "unit": "units/ml"}, {"measurement": "Secretion of Interferon-gamma, HIV Peptide 10 μg/ml", "setting": "spleen cells [3]; [7]", "value": 4, "unit": "units/ml"}, {"measurement": "Vaginal Wash IgA titer, anti-Porin B Protein", "setting": "[4]", "value": 5}, {"measurement": "Vaginal Wash IgG titer, anti-Porin B Protein", "setting": "[4]", "value": 93}]}
